How the values were obtained:
[1] = target: growth hormone receptor a (ghra) of Cynoglossus semilaevis, mScarlet-I fusion (pcDNA3.1-S-ghra) (Cynoglossus semilaevis); test: FRET or BRET; acceptor bleaching FRET in HEK 293T cells co-transfected with the mNeonGreen-ligand and mScarlet-I-receptor plasmids at a 1:2 ratio, 48 h after transfection, Nikon A1R HD25 confocal microscope; FRETeff = (Dpost - Dpre)/Dpost
[2] = target: growth hormone receptor b (ghrb) of Cynoglossus semilaevis, mScarlet-I fusion (pcDNA3.1-S-ghrb) (Cynoglossus semilaevis); test: as above
Chain of growth hormone receptor b (ghrb) of Cynoglossus semilaevis, mScarlet-I fusion (pcDNA3.1-S-ghrb) (Cynoglossus semilaevis) (main, as listed by the source): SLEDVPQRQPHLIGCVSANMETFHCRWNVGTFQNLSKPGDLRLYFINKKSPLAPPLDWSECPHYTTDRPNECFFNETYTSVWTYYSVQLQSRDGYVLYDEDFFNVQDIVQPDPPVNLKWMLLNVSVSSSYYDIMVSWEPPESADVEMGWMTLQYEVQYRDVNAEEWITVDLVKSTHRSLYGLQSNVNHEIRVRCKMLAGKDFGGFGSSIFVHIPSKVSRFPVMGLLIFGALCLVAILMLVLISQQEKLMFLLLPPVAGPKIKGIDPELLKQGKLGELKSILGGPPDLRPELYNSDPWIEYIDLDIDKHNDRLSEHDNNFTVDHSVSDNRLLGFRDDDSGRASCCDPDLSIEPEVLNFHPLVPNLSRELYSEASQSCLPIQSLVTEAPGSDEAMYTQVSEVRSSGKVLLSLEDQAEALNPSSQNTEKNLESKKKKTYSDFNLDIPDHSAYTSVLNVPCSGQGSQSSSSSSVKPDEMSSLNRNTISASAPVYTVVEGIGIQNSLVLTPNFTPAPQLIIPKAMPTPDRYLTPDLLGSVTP

Chain of growth hormone receptor a (ghra) of Cynoglossus semilaevis, mScarlet-I fusion (pcDNA3.1-S-ghra) (Cynoglossus semilaevis) (main, as listed by the source): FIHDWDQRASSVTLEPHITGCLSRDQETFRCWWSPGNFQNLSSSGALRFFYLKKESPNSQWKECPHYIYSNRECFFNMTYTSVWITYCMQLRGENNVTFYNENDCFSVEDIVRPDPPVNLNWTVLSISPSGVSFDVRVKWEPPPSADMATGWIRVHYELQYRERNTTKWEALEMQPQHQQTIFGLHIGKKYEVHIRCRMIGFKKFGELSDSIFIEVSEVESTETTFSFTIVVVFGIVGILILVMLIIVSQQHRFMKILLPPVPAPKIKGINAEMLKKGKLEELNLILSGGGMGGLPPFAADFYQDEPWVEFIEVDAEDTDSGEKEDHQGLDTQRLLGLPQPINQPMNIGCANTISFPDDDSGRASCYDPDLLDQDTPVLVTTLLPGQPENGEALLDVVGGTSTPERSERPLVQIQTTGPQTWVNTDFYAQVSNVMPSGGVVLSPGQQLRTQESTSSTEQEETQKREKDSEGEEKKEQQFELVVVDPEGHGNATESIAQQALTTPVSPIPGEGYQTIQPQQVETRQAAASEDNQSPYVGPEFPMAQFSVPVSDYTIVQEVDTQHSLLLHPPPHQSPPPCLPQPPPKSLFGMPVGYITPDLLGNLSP

FRET efficiency [1]	FRET efficiency [2]	Substance
0.0534	0.036	growth hormone (gh) of Cynoglossus semilaevis, mNeonGreen fusion (pcDNA3.1-N-gh) (ligand)
0.0509		somatolactin (sl) of Cynoglossus semilaevis, mNeonGreen fusion (pcDNA3.1-N-sl) (ligand)
